Assay [1] has as its target T1, human HGF (R&D Systems, 294-HG/CF) (human, UniProt P14210 32-728).
T1 construct: The entry begins at QRKRR, without signal peptide; Amine-coupled to the chip in SPR and biotinylated in AlphaScreen; also called rec hHGF (R&D systems)
Put plainly: AlphaScreen competition, serial dilution of purified Nanobody; inhibition of biotinylated human HGF binding to c-Met-Fc. As for the experimental part:
(§1) In brief, 5 μl of 1/5 prediluted periplasmic extract of individual Nanobody clones were incubated with 3 nM biotinylated HGF, 2 nM c-Met-Fc, streptavidin coated donor beads and anti-human IgG1 Fc Nanobody covalently coupled AlphaScreen acceptor beads. Monoclonal antibody clone 24612 (R&D systems) known to inhibit the HGF/c-Met-Fc interaction, was used as a positive control. Assays were read in an Envision AlphaScreen™ option fitted multimode reader (Perkin Elmer). Individual clones were scored as putative HGF/c-Met-Fc interaction inhibiting if the presence of the periplasmic extract decreased the fluorescent signal of the acceptor beads. Both inhibitory and non-inhibitory clones were identified. A 10-fold reduction in signal with respect to the negative control (irrelevant periplasmic extract and buffer) was used to select the HGF/c-Met inhibiting Nanobodies. As a positive control, anti-HGF monoclonal antibody (R&D systems, clone 24612) was included. FIG. 2 depicts an example of screen of periplasmic extracts using AlphaScreen.
(§2) Serial dilutions of purified Nanobodies were then analyzed for their ability to block the interaction of human HGF with c-Met-Fc using the same AlphaScreen™ assay as described above (1.4). […]
(In general: Bead proximity is the source of the signal in Alpha formats.)

Assay [2] deals with T1, human HGF (R&D Systems, 294-HG/CF). The assay can be described thus: SPR (Biacore T100), HGF amine-coupled to CM5 chip, periplasmic extract at one dilution. Here is the method:
Off-rate constants (Koff) of individual Nanobodies were determined by surface plasmon resonance on a Biacore T100 instrument.
Human HGF (R&D) was amine-coupled to a CM5 sensor chip at a density of 2500 relative units. Remaining reactive groups were inactivated using ethanolamine. Nanobody binding was assessed at a single dilution of periplasmic extract, whereas c-Met was tested with a single concentration of 10 nM. Each sample was injected for 2 min at a flow rate of 45 μl/min to allow for binding to chip-bound antigen. Next, binding buffer without Nanobody was sent over the chip at the same flow rate to allow dissociation of bound Nanobody. After 10 min, remaining bound analyte was removed by injecting regeneration solution (1M NaCl, 50 mM NaOH).

Assay [3] deals with T2, human HGF (R&D material and Peprotech material, values averaged over both) (human, UniProt P14210 32-728).
T2 construct: As printed they differ in one letter
T2 sequence (P14210 32-728 limits assumed): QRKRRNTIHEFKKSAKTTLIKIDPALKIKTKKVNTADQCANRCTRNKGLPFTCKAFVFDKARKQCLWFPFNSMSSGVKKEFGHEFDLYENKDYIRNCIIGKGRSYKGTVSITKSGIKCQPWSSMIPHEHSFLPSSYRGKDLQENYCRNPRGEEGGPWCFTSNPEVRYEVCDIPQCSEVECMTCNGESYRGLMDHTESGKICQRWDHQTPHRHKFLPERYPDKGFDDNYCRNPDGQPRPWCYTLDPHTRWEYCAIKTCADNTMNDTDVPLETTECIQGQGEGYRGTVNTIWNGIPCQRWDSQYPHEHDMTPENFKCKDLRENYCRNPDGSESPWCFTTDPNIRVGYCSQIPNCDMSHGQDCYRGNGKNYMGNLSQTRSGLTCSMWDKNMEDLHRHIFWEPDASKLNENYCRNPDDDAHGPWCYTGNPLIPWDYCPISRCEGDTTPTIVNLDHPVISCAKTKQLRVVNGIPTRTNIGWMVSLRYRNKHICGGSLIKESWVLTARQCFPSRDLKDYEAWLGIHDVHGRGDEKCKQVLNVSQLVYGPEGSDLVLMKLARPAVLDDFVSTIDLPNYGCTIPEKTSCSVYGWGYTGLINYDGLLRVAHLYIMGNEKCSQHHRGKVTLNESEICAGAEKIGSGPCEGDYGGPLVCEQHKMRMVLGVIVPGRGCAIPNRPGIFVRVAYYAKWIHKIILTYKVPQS
Put plainly: SPR (Biacore T100), purified Nanobody, biphasic dissociation, kd1 fitted 125-185 s after injection start. (SPR reads the build-up and loss of mass on a sensor chip optically.)

Assay [4] deals with T2, human HGF (R&D material and Peprotech …). Put plainly: SPR (Biacore T100), purified Nanobody, biphasic dissociation, kd2 fitted 300-720 s after injection start.
Assay [5] shares this target. The assay can be described thus: SPR (Biacore T100), purified Nanobody, average of R&D and Peprotech HGF. As for the experimental part:
Affinity constants (Kd) of individual purified Nanobody clones were determined by surface plasmon resonance on a Biacore T100 instrument essentially as described above. The average was taken of an analysis performed on R&D material and Peprotech material.

Assay [6] concerns the target T1, human HGF (R&D Systems, 294-HG/CF). Put plainly: AlphaScreen competition, biotinylated HGF and c-Met-Fc, dilution series of purified Nanobody. As for the experimental part:
as §1, §2

The target in assay [7] is T2, human HGF (R&D material and Peprotech …). Put plainly: SPR (Biacore T100), summary table.
The target is the same in assay [8]. Put plainly: SPR (Biacore T100), purified Nanobody, biphasic dissociation, kd1 fitted 125-185 s after injection start; kd1: early phase of the bi-phasic dissociation, fitted 125 to 185 seconds after injection start.

The term koff denotes a measure of how fast the partners let go of each other. Usually Kd stands for a measure of binding affinity in units of concentration. Lower therefore signals higher affinity. As a reminder, the kon is the second-order rate constant of association. A high value points to fast association. What is called IC50 is the midpoint of a concentration-inhibition curve.

T1 sequence (P14210 32-728 limits assumed): as above

B1: 5C7 (VHH)
VHH: EVQLVESGGGLVQAGDSLRLSCAASGGTFGSSHMAWFRQVPEKEREFVAAISRSGGTTYYADSVKGRCTISRDNAKNTVYLQMNSLKPEDTAVYYCAAARFWGSTSTRMDDYQYWGQGTQVTVSS
notes: anti-HGF Nanobody clone; not shown: c-myc and His6 tags
In the case of B1, the “IC50 (read off the curve)” value in assay [1] was approximately 10 nM. For the same molecule, the koff in assay [2] turned out to be 0.0019 s⁻¹; in assay [3], 0.00605 s⁻¹; in assay [4] it was 0.000821 s⁻¹.

B2: 7G6 (VHH)
VHH: EVQLVESGGGLVQAGGSLRLSCAVSGRTFSPYTMGWFRRAPGKEREFVAARTWSGGVAWYADSVKGRFTISSDNAENMVYLQMNSLKPEDTAVYYCAAKSPGRTYSPREERAYARWGQGTQVTVSS
notes: as for B1
In assay [5], B2 returned a Kd of 0.67 nM, a koff of 0.000691 s⁻¹ and a kon of 1.06e+06 M⁻¹ s⁻¹. Besides, the “IC50 (read off the curve)” value in assay [1] is approximately 3 nM. The koff in assay [2] came out at 0.000936 s⁻¹.

B3: 9H5 (VHH)
VHH: EVQLVESGGGLVQPGGSLRLSCAASGSIFNLNPMGWYRQAPGKQRELVATVTGEGRTNYSDSVKGRFTISRDNAKNTVYLQMNSLKPEDTAVYYCNAAFWAYDDAYWGQGTQVTVSS
notes: as for B1
Consider B3, for which the IC50 in assay [6] turned out to be 2.1 nM. In addition, the koff in assay [7] was determined as 0.001 s⁻¹; in assay [2], 0.00155 s⁻¹; in assay [8] it was 0.00241 s⁻¹; in assay [4], 0.000952 s⁻¹.

The values above are taken from patent publication US20150010546A1 (Ablynx, published 2015).
